# According to the supplement of paper PMC10126150:
# ± gives the standard deviation of the averaged measurements.
# System: ATP
# Experiment: switch fluorescence ratio, 500 uM ATP over buffer (Cy3 cluster intensity, sum of 5 cycles each) (fold (ratio)); higher = stronger signal-on switching upon ATP binding; sequences stand for … in TCGTCGGCAGCGTCAGATGTGTATAAGAGACAGTTTTTTTTTTTTTTTTTTTTTTTTT…TC
# Conditions: aptamer strand: ATP DNA aptamer (quencher-CACCTGGGGGAGTATTGCGGAGGAAGG + anchor), 100 nM annealed; ATP concentration: 500 uM
# Summary of the method: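 Switching-strand clusters labelled with Cy3 on a modified Illumina MiSeq flow-cell were annealed to 100 nM quencher-labelled ATP aptamer, imaged in selection buffer, and re-imaged after 15 min with 500 uM ATP at 22 °C. This was done over five cycles with NaOH stripping and re-annealing in between. The fluorescence ratio is summed target-cycle over summed buffer-cycle Cy3 intensity per cluster, averaged per switch-domain sequence, excluding clusters outside 100-1000 RFU.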
# 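Note: ATP exposure 15 min at 22 °C before imaging.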
row,Sequence,switch fluorescence ratio
1,GCAGAGGGC,1 ± 0.012
2,TTTTAGAGCG,1.02 ± 0.025
3,GAAGATGAGG,1 ± 0.028
4,CGGGGAGGGG,0.985 ± 0.028
5,GAGAGGTGGG,1.01 ± 0.024
6,GATCAAGGCA,1.017 ± 0.0012
7,CCAGCTACGG,1.06 ± 0.053
8,CCTATTATTG,0.98 ± 0.028
9,CTGGGGCGGG,0.996 ± 0.057
10,TGACGCGTCA,1.01 ± 0.013
11,TACGATGTGC,1.0053 ± 0.00075
12,TTTGGGATGG,0.983 ± 0.046
13,TATTTGGTT,0.991 ± 0.024
14,GGGTATGTCC,0.989 ± 0.026
15,GGTGGTTTGG,1.023 ± 0.0045
16,CTTAAAAGTA,0.972 ± 0.018
17,TGAAGTAAGG,1.03 ± 0.029
18,AGGGGTGATA,1.023 ± 0.0047
19,CTTGGGATTT,0.98 ± 0.013
20,AGAAGAATTT,1.02 ± 0.016
21,TAGTCTACGA,1.03 ± 0.026
22,GACACAGTGT,0.98 ± 0.026
23,GTGCTAACCT,1.271 ± 0.011
24,CAGTGGTCGT,0.999 ± 0.011
25,GGGTCGCAGC,0.998 ± 0.015

row,Sequence,switch fluorescence ratio
1,TATAGGGGGG,1 ± 0.017
2,TGTTAGCCGA,1.02 ± 0.026
3,AGCGGATTCT,0.984 ± 0.041
4,TCGAAGTGTT,0.989 ± 0.027
5,TGAAGAAGTG,0.994 ± 0.022
6,CCTAGGGTCA,1.01 ± 0.018
7,TAGGTTAACT,0.956 ± 0.024
8,CATTCTACGT,1.04 ± 0.018
9,ACAAAGGGGG,0.92 ± 0.087
10,TTCGACTTTT,0.988 ± 0.051
11,AGGGTCGGAT,0.972 ± 0.033
12,CGAGTAAAGA,1.03 ± 0.028
13,GTTAGGCGGT,1.01 ± 0.014
14,GTGAAAAGCA,1.04 ± 0.014
15,ATCACAAATA,1.02 ± 0.024
16,CTAGGGGGTC,0.993 ± 0.046
17,CAATACCTAT,1.05 ± 0.022
18,TAACACGAAT,1.01 ± 0.0083
19,GTATGCAGGG,0.989 ± 0.035
20,CCTTTATGGC,0.947 ± 0.029
21,ACACAGTAGT,1.03 ± 0.011
22,GGTAGTAGAG,1.02 ± 0.011
23,ATAGTTTTCC,1 ± 0.024
24,ATAAGGCTTT,0.989 ± 0.029
25,GGCTGGGGTA,0.9884 ± 0.0032

row,Sequence,switch fluorescence ratio
1,CTGTTTCGAC,1.02 ± 0.051
2,GAAATGGAAG,1 ± 0.038
3,TTTTTTGAT,1.01 ± 0.032
4,GTAACCGGTA,1.02 ± 0.024
5,CGGAAGGGGA,1.05 ± 0.027
6,AGATATTTCG,1.02 ± 0.028
7,GGATCGAAGG,0.96 ± 0.039
8,TTTAGTCATG,0.977 ± 0.035
9,TTTTTAGGGA,0.99 ± 0.029
10,TCACGTAGGC,1.04 ± 0.053
11,AGGTGCCAGG,1.07 ± 0.036
12,TTAATGGGAT,0.987 ± 0.021
13,CCGTTGGTAA,1.345 ± 0.0022
14,GGGGGACTTG,0.997 ± 0.021
15,TTCTGGGTGG,0.987 ± 0.04
16,CTTGGGGATT,0.99 ± 0.044
17,TATCTGGGGT,1.02 ± 0.025
18,TTGTTAGTTT,0.983 ± 0.032
19,TCGGGTACGT,0.967 ± 0.032
20,CGATGCGAAG,1.02 ± 0.035
21,GGGTCAGTGG,0.976 ± 0.035
22,TATGGGGCAA,1.091 ± 0.0015
23,ATTCGAGAAG,0.997 ± 0.018
24,TGTTGGTAGG,0.964 ± 0.03
25,CTCCGGGAAA,1.214 ± 0.0036

row,Sequence,switch fluorescence ratio
1,GACGCATTTT,2.18 ± 0.17
2,TAATTTTTGG,0.992 ± 0.023
3,GCGATTAAG,0.981 ± 0.017
4,GGTCCAGTGA,1.02 ± 0.023
5,TAACGGGGTA,1.01 ± 0.02
6,AATTTGTTGG,0.996 ± 0.017
7,TCCGCGACGG,1.4 ± 0.2
8,AGACATCTTT,1.016 ± 0.0062
9,GCTTTTATCA,0.978 ± 0.01
10,GAGCTAGGGG,1.03 ± 0.041
11,GTTTAGGTTT,1 ± 0.019
12,GATTTAGTAA,0.9759 ± 0.0069
13,TGAGGATATA,0.9887 ± 0.0059
14,ATTGTGCAGG,0.998 ± 0.0025
15,GAATGTTAAT,1.04 ± 0.027
16,TTTACGGGTT,0.988 ± 0.021
17,GGGTGTTAGC,1.02 ± 0.046
18,ACATCGTTCT,0.977 ± 0.018
19,AAGAGGCATG,0.971 ± 0.07
20,TTCAAATGAG,0.98 ± 0.044
21,CGGGTGTAGT,1.03 ± 0.024
22,TAAAATCAGT,0.992 ± 0.046
23,GATGTGGTGT,0.984 ± 0.081
24,GCGTCTTTAC,1.13 ± 0.024
25,GGAGTTGGG,0.968 ± 0.012
